Laboratory results from paper doi:10.1101/2023.05.14.540690.

Target: stressed NISTmAb monoclonal antibody
Experiment: AUC; sedimentation velocity at 50,000 rpm and 20 °C; c(s) analysis in SEDFIT (command line operated, and repeated manually on the same data); stressed, partially denatured sample

stressed NISTmAb monoclonal antibody
percent of signal in higher aggregates (command line analysis): 51.8% | percent of signal in higher aggregates (manual analysis of the same data): 51.7% | percent of signal in the dimer peak: 12.5% | stoichiometry N: 2
